Test system: MS2 coat protein
Test: apparent KD of MS2 coat protein; higher = weaker reporter binding
Settings: Eterna round: R107
How it was run: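 Apparent KD per design is the median of normalised cluster binding-curve fits. Designed RNA switches transcribed on-chip from Illumina sequencing clusters were titrated with SNAP-549-labelled MS2 coat protein in twofold steps from 0.7 or 1.5 nM to 3 µM, with 0.8–1.5 h down to 10–20 min per step. Buffer: 100 mM Tris-HCl pH 7.5, 80 mM KCl, 4 mM MgCl2, without or with constant ligand.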

[1] = input ligand: theophylline 20 uM
[2] = input ligand: theophylline 2 mM
[3] = input ligand: tryptophan 2.4 mM

Row | Sequence | apparent KD of MS2 coat protein (input ligand: arginine 13.2 mM) [nM] | apparent KD of MS2 coat protein (input ligand: none) [nM] | apparent KD of MS2 coat protein [1] [nM] | apparent KD of MS2 coat protein [2] [nM] | apparent KD of MS2 coat protein [3] [nM]
1 | CGGCCCUCACUUGAGGAACACCCAAGUGAUACCAGCCUGGAAACAGGCCCUUGGCAGCACUAGGUCAUCAAAGAUGACCAAGCCG [TheoAX 29 #OpenEnded #AlternativeMS2] | 17.7 | 23.8 | 42.8 | 373 | 23.1
2 | CGAAUACCAAUUGAUACCAGCAUGUUAACAUGAGGAUCACCCAUGUUAAGGAUAACAUAAUGCCCUUGGCAGCAACGUAAAUUCG [Aa] | 19.2 | – | 22.9 | – | 19.6
3 | UAUCCACAUGAGGAUCACCCAUGUAGGGAAGGAGCGGUGAUUUCACCAGGUAGGUCGCCUUACUGAGGAGAACCGGUGGAAUCGU [Exclusion - Arginine A (Freestyle 30)] | 45.5 | 25.9 | 40.6 | 75.9 | 19.8
4 | CUCUUGGCCGCAGUACGUUUAUAGACCUAUCGAGGACCGGUACGGCCGCCACUCGGUUAGUCACAUGAGGAUCACCCAUGUGUCC [theeternabot_exclusion_MS2_Trp_A_38] | 17 | – | 23 | 19.7 | –
5 | ACGUAGAAGUCGGCCGCCACUGAUUUCAUGUUCAACAUGAGGAUCACCCAUGUACCUUAUGUUAACAGGACCGGGACGUAUACGA [JR_SSTryptoB_Sub001] | 228 | – | 303 | 442 | –
6 | UCGGGCCUUCUUUCUUGGCCCGUUACAGAAGGAGCGUCGGAAAUGACAGGUAGGUCGCUGAGAACAUGAGGAUCACCCAUGUAUU [SSAA #14] | 16.8 | 26.4 | 28.9 | 25.1 | 22.1
7 | CCCAACAGUGAUGCCGGUGUUGGUGGUGAUACCAGCGUCUUAUGGCGCCCUUGGCAGCACCAACAUGAGGAUCACCCAUGUGAAA [Beenerveor] | 19.8 | – | 113 | – | 36.9
8 | UACAUGAGGAUCACCCAUGUAUAACCGGUACGAGGACCGGUACGGCCGCCACUCGAAACAUGAGGAUCACCCAUGUGCUACUAUU [Same State Trypophan A GF 22] | 25.3 | – | 36.4 | 35.1 | –
9 | CCAUCUACAUCGGCCGCCACUGAACCAAGGAGACAUGAGGAUCACCCAUGUAUGGGAAACCAUCAUAGGACCGGGAUGAUCUACC [doubleHook] | 95.2 | – | 336 | 415 | –
10 | UGUAUGUGAUCUGAUACCAGUCCAACUGGUAAAUCAUGAGGAUCACCCAUGGAAAAUUGGGACCCUUGGCAGCAGAUCGCAUACU | 94.1 | 452 | 490 | 38.1 | 1070
11 | CAAAAUAUAACGGCCGCCACUUACUCAUGAGGUAACAACAUGAGGAUCACCCAUGUUUGAGGAUCAAGGACCGGGUUAUAUUUUG [AstrosSSTry#21] | 24.7 | – | 34.9 | 33 | –
12 | AAUAACAUGAGGAUCACCCAUGUAAGUAAACGAGGACCGGUACGGCCGCCACUCGAAUAAAUAAAGUACCGGUAAGAUCCAUAGA [Default title] | 17.9 | – | 25.9 | 22.5 | –
13 | CACAUGAGGAUCACCCAUGUCUGAACUGAAGGAGCGCUAAACAAGGCAGGUAGGUCGCGGAAUCCCGUGUGCAUAUGCACACGGG [9.Z] | 24.1 | 15.6 | 24.1 | 20.4 | 18.9
14 | AAACGUUGCUCAGAUACCAGACAUGAGGAUCACCCAUGUACCAAGGUAACCGAAAGGCAUGUCCCUUGGCAGCUGAGCAACGAAA [MAT - Exclusion Theophlline B - Mod of Eli - D16] | 12.4 | – | 21.4 | – | 12.5
15 | CAGCACAUGAGGAUCACCCAUGUGAGGGAUACCAGCUCAGGCGUGGGCCCUUGGCAGCUCUCUGGCUGACGAAAGUCAGCCUGUG [#20 SameState-TheophyllineA] | 14.4 | – | 24.2 | – | 13.6
16 | GGCACGUACGGAAGGAGCGACUGUUCAACGUGGGUACAUGAGGAUCACCCAUGUCUCCGCAGUCAGGUAGGUCGCCGUACGUGCC [EAB NP+V+V2 #20] | 15 | 12.2 | 19.8 | 13.2 | 10.7
17 | AGACAUGAGGAUCACCCAUGUAGUAUGGAUACCAGAUCCAGAUUUAUCCCUUGGCAGCUGUGGUACAGCGAUGGAUUGCUCCUAG [Exclusion - Theophylline A (Freestyle 10)] | 33.5 | – | 48.5 | – | 39.2
18 | GCGAUGGAGCGAAGGAGCGUGCUAGUACAUGAGGAUCACCCAUGUGAGUCGCAGCGCUAAGCACAGGUAGGUCGCGCUCCAUCGC [EAB NP+V+V2 #12] | 31.1 | 48.4 | 26.8 | 49.7 | 40.5
19 | GUGUUUGUGUGAGAUACCAGUGAGGCCACAUGAGGAUCACCCAUGUCCCUCACUCCGGCCCACCCUUGGCAGCUCUUAUAGUAGU [Exclusion Theophylline B GF 23] | 9.34 | – | 13.3 | – | 9.83
20 | AUAAGUAAUGUUACGUGUUUAAUUGCAGAUACCAGACUAUACGUUGUCCCUUGGCAGCUGAAUUACAUGAGGAUCACCCAUGUUG [JR_ExcTheophyA_Sub005] | 19.4 | – | 28.5 | – | 25.7
21 | AAGGACAUGAGGAUCACCCAUGUAGAGGAGCGAGGACCGGUACGGCCGCCACUCGGUGACAUUCGAUAAUGCCGAAUAAGACAUC [theeternabot_sameState_MS2_Trp_A_47] | 26.8 | – | 33.2 | 24.6 | –
22 | GAAGAUCCGUAAGAUACCAGUGCAGAUCGGCACAUGAGGAUCACCCAUGUAAAGCAAGAACACCCUUGGCAGCUUUCGUAACAAC [theeternabot_sameState_MS2_Theo_B_15] | 66.9 | – | 64.8 | – | 109
23 | UCGCCCAGGUAGGCUUAAUGGGAUAUGGAAGGAGCGCUGAUGCCAGCAGGUAGGUCGCCAACGGACAUGAGGAUCACCCAUGUAC [Same State - Arginine A (Freestyle 4)] | 24.7 | 18 | 34.6 | 27.1 | 22.7
24 | UUAACAUGAGGAUCACCCAUGUUUGAUGAAGGAGCGACCAGAGGGUCAGGUAGGUCGCAUCACAUGAGGAUCACCCAUGUCGCCC [DOUBLE!!! :-D #13] | 22.3 | 21.8 | 26 | 25.8 | 22.4
25 | GCACCAGGUACGGAUACCAGCUGCCAUAGUUACAUGAGGAUCACCCAUGUGAUCUAUUGUAGCCCUUGGCAGCUGUACCUGGUGC [SSThB NP+V+V2 #5 Same Structure] | 71.2 | – | 398 | – | 46.8
26 | CAUAUAUAUAGAAGGAGCGACAUGAGGAUCACCCAUGUCUACCACGUCGAAAGACGCUCAUGUCAGGUAGGUCGCUAUAUAUAUG [Astros-Eli-mod2] | 56.2 | 115 | 154 | 198 | 147
27 | AAGACAUGAGGAUCACCCAUGUCGUGUGAACGAGGACCGGUACGGCCGCCACUCGUUUGAAAAUAAACGAAUGCGGCCUGGGAAA [Exclusion Tryp A GF1] | 11.1 | – | 13.4 | 12.3 | –
28 | ACGUAAUGCAGAAGGAGCGUCUGAUUUUAACAUGAGGAUCACCCAUGUAAUAUUUAUGGUAGACAGGUAGGUCGCUGAAGUACGA [JR_ExcArginiB_Sub002] | 14.8 | – | 16.8 | 15.2 | 14.8
29 | CGAGUAAGAACAAUCGAAUAACGGUUUUCGCGAGGACCGGUACGGCCGCCACUCGUGUGAUAUCACACAUGAGGAUCACCCAUGU [3'end-1] | 61.3 | – | 96.7 | 101 | –

Source: the supplement of paper PMC9170038
